Source: the supplement of paper PMC12042874
± gives the uncertainty stated by the source.

Test: amyloid nucleation score (Sup35N fusion, yeast selection) (log enrichment); library NNK3; higher = more nucleation; inactive = no reads after selection
Outline: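 Growth for 7 days at 30°C on medium lacking adenine and uracil followed a 24-hour induction with 100 μM copper sulfate of psi-negative yeast expressing peptides of 20 random codons fused to Sup35N. Input and output plasmid inserts were sequenced with Illumina, and sequences with under 100 input reads were excluded. Nucleation score is the DiMSum log enrichment of output over input reads, centred on the mode score of non-aggregating sequences.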
For AKSVSLHIPTCRYHLTYIAF, the amyloid nucleation score was “inactive”. For DSSKFLLTCHLWCG, the amyloid nucleation score was “inactive”. In the case of FANSY, the amyloid nucleation score is reported as “inactive”. In the case of YTFRCIYRADYNTP, the amyloid nucleation score is reported as “inactive”. In the case of FYYNVRLRRAGWAYRITWTT, the amyloid nucleation score is reported as “inactive”. For DNCEDEDKNRRNVRLYRGWV, the amyloid nucleation score was “inactive”. In the case of LCGLSDSYCRA, the amyloid nucleation score is reported as “inactive”. With FAFSNLTKPVFKI the amyloid nucleation score was “inactive”. In the case of INCSLENLINKDLWVSSQVC, the amyloid nucleation score is reported as “inactive”. Work on MWACSKYRWMHATDGVGLTY yielded an amyloid nucleation score of 0.674 ± 0.17. In the case of TRWRLSVYERVGARRDTPLC, the amyloid nucleation score is reported as “inactive”. With VRMRDFKENARRMVP the amyloid nucleation score was “inactive”. In the case of CFAKCFMKNLRSIGRVFLMG, the amyloid nucleation score is reported as “inactive”. For SSWLLLAGKIW, the amyloid nucleation score was “inactive”. With MSRGCCINLTLQIRVFWNTM the amyloid nucleation score was “inactive”. In the case of IKIMFLTAVYVMVGLQIIAT, the amyloid nucleation score is reported as “inactive”. With SFCMCGGLLVRSYRSFRFVR the amyloid nucleation score was “inactive”. In the case of EGPGDEIFVSG, the amyloid nucleation score is reported as “inactive”. With MYTKNPSVSILCFDENGERA the amyloid nucleation score was “inactive”. In the case of LNNTQFL, the amyloid nucleation score is reported as “inactive”. In the case of RIRMSCYLIVYIGIACGYIS, the amyloid nucleation score is reported as “inactive”. With YMVWMLNQDRSACGINIMSI the amyloid nucleation score was 1.33 ± 0.12. In the case of QVDHNWF, the amyloid nucleation score is reported as “inactive”. For HDRTVSLQYRVNTRVRLASW, the amyloid nucleation score was “inactive”. In the case of CRNSEKVWDPQRTVRALSRF, the amyloid nucleation score is reported as “inactive”. In the case of RFTCKYLPTLLTGVIRGPSP, the amyloid nucleation score is reported as “inactive”. In the case of FFPAMRTCWGKSGCARPYA, the amyloid nucleation score is reported as “inactive”. In the case of SPVIKRYCILM, the amyloid nucleation score is reported as “inactive”. Work on WYSRTDCNKTAENSCSTKFI yielded an amyloid nucleation score of 0.611 ± 0.17. With NKPCYLSSFPQCDHFFVWTD the amyloid nucleation score was “inactive”. For DRFEMPDVLWCRDYCNIARS, the amyloid nucleation score was “inactive”. For LLVSQLRYYWTATRNKFIF, the amyloid nucleation score was “inactive”. With VGNFSFD the amyloid nucleation score was 0.845 ± 0.16. With DFYICPCCLSLKKRTMMSCG the amyloid nucleation score was “inactive”. With MSYEDTPCH the amyloid nucleation score was “inactive”. In the case of LSLRCEFSSASSGCTSGQRR, the amyloid nucleation score is reported as “inactive”. For LVDLRTVSYTLSQKMKFGGS, the amyloid nucleation score was “inactive”. With ELDGMTYASDHAFCISRNSS the amyloid nucleation score was “inactive”. In the case of TCLLRQCWNNVMS, the amyloid nucleation score is reported as “inactive”. With SCAKQLCYHGFLMGH the amyloid nucleation score was “inactive”. For TVMVKSSYGLNCFGRSF, the amyloid nucleation score was 0.743 ± 0.13. SVTFANTSRHYPLADLSTPT showed an amyloid nucleation score of 0.162 ± 0.27. For CMIMRAFRYNVALDMHMLHD, the amyloid nucleation score was “inactive”. With SSPRSMASYQRSKIRWVSEF the amyloid nucleation score was “inactive”. For GSWSVRLPLIWTKY, the amyloid nucleation score was “inactive”. CNLVVYCMSDNDV gave an amyloid nucleation score of 2.33 ± 0.049. For TMLDLGDKYVMLFEQVDSFF, the amyloid nucleation score was “inactive”. In the case of MPCNVKYSTVCFTA, the amyloid nucleation score is reported as “inactive”. For FRSGSIDCSKLWILFY, the amyloid nucleation score was “inactive”. In the case of YYLCYLSVHLSMIGCKEKGR, the amyloid nucleation score is reported as “inactive”. With YGLHTGKSKALQQRIVW the amyloid nucleation score was “inactive”. For MSSFTAYLLNLR, the amyloid nucleation score was “inactive”. With LEVHIFKDPEY the amyloid nucleation score was “inactive”. In the case of LPRLYDFLGLVWVIA, the amyloid nucleation score is reported as “inactive”. For NALYTSLYRLNLGFWAQMLP, the amyloid nucleation score was “inactive”. With WMRVPRMWEGKANFISG the amyloid nucleation score was “inactive”. For ILARYLDIYMSSVPVEWVTK, the amyloid nucleation score was “inactive”. With SRCPMADCMRKPRGGCSVGR the amyloid nucleation score was “inactive”. Work on EMNVLCGTYKFQFGVASGVD yielded an amyloid nucleation score of -0.385 ± 0.73. In the case of CYLGSHSFSAYCGQLFIFSV, the amyloid nucleation score is reported as “inactive”. In the case of VRMTAIFLNLKVWQSNMFVV, the amyloid nucleation score is reported as “inactive”. For GCARLAIMSKLPSCW, the amyloid nucleation score was “inactive”. In the case of VRTRWFIAPVCVARGSLCLV, the amyloid nucleation score is reported as “inactive”. For FLSCCKGCLCCCQRPLSIYY, the amyloid nucleation score was “inactive”. In the case of SARSVIYYVPGLSTWSVTS, the amyloid nucleation score is reported as “inactive”. In the case of VFKSSGPAVTSYWY, the amyloid nucleation score is reported as “inactive”. In the case of LSIVRAGVRSGNRGELFRCR, the amyloid nucleation score is reported as “inactive”. For SFNVDAYMNINCW, the amyloid nucleation score was 1.02 ± 0.21. For MYIVRRKTICET, the amyloid nucleation score was “inactive”. With IGRAIVHWYWFSSL the amyloid nucleation score was “inactive”. With CLQDPFPTIVPIVMGSIAKE the amyloid nucleation score was “inactive”. With FMLNVVDY the amyloid nucleation score was “inactive”. With RNSIMSSDWSHSGYGS the amyloid nucleation score was “inactive”. With WINNIAPPYGQ the amyloid nucleation score was “inactive”. Work on LTICFVSYVTVGDAGTMTPR yielded an amyloid nucleation score of 1.62 ± 0.099. With RAGYVWTAVLRPHSNVAWFV the amyloid nucleation score was “inactive”. In the case of NTCSCTGFTFAAGDV, the amyloid nucleation score is reported as -0.33 ± 0.39. With NPSVPTQTPVDMWACTKG the amyloid nucleation score was “inactive”. For LVTPSSTALFWSNFLWSELP, the amyloid nucleation score was “inactive”. In the case of NVGITMGCNRTPCLSTWFAV, the amyloid nucleation score is reported as “inactive”. In the case of LRVPSPYIFYKSKGHNIGSL, the amyloid nucleation score is reported as “inactive”. In the case of HRLVRLSVRMSRRTYS, the amyloid nucleation score is reported as “inactive”. In the case of VYCLFVTCLKGINQWMHDKS, the amyloid nucleation score is reported as “inactive”. In the case of RFWSMRALR, the amyloid nucleation score is reported as “inactive”. With WVQHISLWSTMWNGPREAPM the amyloid nucleation score was “inactive”. For DRLYGVSFVDF, the amyloid nucleation score was “inactive”. With FYVLHPCAPFVFPHQTTNIT the amyloid nucleation score was “inactive”. In the case of NSWVNSPFNLS, the amyloid nucleation score is reported as “inactive”. In the case of SSCKWLFTSSHPSHPEAS, the amyloid nucleation score is reported as “inactive”. For DLGMLERC, the amyloid nucleation score was “inactive”. In the case of WDRSMMIAIDD, the amyloid nucleation score is reported as “inactive”. For SRTSYYMPTIPCMMPMN, the amyloid nucleation score was “inactive”. Substance LPEMGFFSLVDNWLAVAFSK has an amyloid nucleation score of 1.46 ± 0.081. In the case of KKVISSCFYRVCVSSPAGSV, the amyloid nucleation score is reported as “inactive”. In the case of SLSVVMLLKVVVRPSNWWEG, the amyloid nucleation score is reported as “inactive”. With LAMSYYLYPGSCDLKRS the amyloid nucleation score was “inactive”. With LHVLPEQARTPRVTVPVFSP the amyloid nucleation score was -0.339 ± 1.1. In the case of LSRCVPNDVGKAYMMKEKRK, the amyloid nucleation score is reported as “inactive”. With RPVSGTNFINAN the amyloid nucleation score was “inactive”. Substance IIFWNICPAYCYL has an amyloid nucleation score of 2.29 ± 0.059. For RSKEMNVKASKNSMVHVSEV, the amyloid nucleation score was “inactive”. With MLYNCRQGCKRSW the amyloid nucleation score was 0.248 ± 0.44. With ILSKVNSKSDKRSF the amyloid nucleation score was “inactive”. In the case of LLVAYPHYAGFCTAVSSKSG, the amyloid nucleation score is reported as “inactive”. Work on YYFRRVWTCPLIAQIIKSDL yielded an amyloid nucleation score of 0.39 ± 0.71. In the case of FSASSISDKIFSMEYCTTWV, the amyloid nucleation score is reported as “inactive”. With TDVYHQNAQYHRVYNLQGRV the amyloid nucleation score was “inactive”. In the case of HICIMNMLRFRCIWIPIFYM, the amyloid nucleation score is reported as “inactive”. In the case of SLMKGCTLLDSFRLRKP, the amyloid nucleation score is reported as “inactive”. For DPTVVGWEYMVSRFCLSRFT, the amyloid nucleation score was “inactive”. For VMRLHRCKELVCDSIYTLRG, the amyloid nucleation score was “inactive”. In the case of YIKLGYQYLYVGE, the amyloid nucleation score is reported as “inactive”. CFLYYRM gave an amyloid nucleation score of 1.17 ± 0.11. With MSCTDRYEIL the amyloid nucleation score was “inactive”. In the case of GLGWNWDWR, the amyloid nucleation score is reported as “inactive”. With RMWLD the amyloid nucleation score was “inactive”. With FSFQQSWVSY the amyloid nucleation score was “inactive”. In the case of STVVNSYMNFCACKGSNMAC, the amyloid nucleation score is reported as 2.7 ± 0.068. In the case of LVSHSTMLPVSFFAHYRGEV, the amyloid nucleation score is reported as “inactive”. With IWTLS the amyloid nucleation score was “inactive”. With LNYVVTHLYLVLFHVMVSDG the amyloid nucleation score was “inactive”. In the case of CISSCYWWFGFYVLKWE, the amyloid nucleation score is reported as “inactive”. In the case of KCTANL, the amyloid nucleation score is reported as “inactive”. In the case of VLGSRVKGDYCRCLEMECIW, the amyloid nucleation score is reported as “inactive”. For FVYQYYV, the amyloid nucleation score was “inactive”. For KSTTACASRTYMCMHTGRNC, the amyloid nucleation score was “inactive”. For VVLQDPGSLYEPRSHGTWFT, the amyloid nucleation score was “inactive”. In the case of NDASYDLRRWWCKTAPGLSG, the amyloid nucleation score is reported as “inactive”. LIVGKNNVPMFTSNKFLVFS showed an amyloid nucleation score of -0.508 ± 0.8. For GYYNSYQAELMTTACSDYVD, the amyloid nucleation score was “inactive”. With IVITHANTWMLLLVFPITAN the amyloid nucleation score was “inactive”. In the case of KFSTTFVTCSIVLVRILLDL, the amyloid nucleation score is reported as “inactive”. With VKTRTIRVSH the amyloid nucleation score was “inactive”. With QNCFHVY the amyloid nucleation score was “inactive”. Work on TVFLDIISDVLILGGVRCRR yielded an amyloid nucleation score of 1.26 ± 0.13. With FIEKAC the amyloid nucleation score was “inactive”. SMLVELVFSLQTQSSGSSGR gave an amyloid nucleation score of -0.059 ± 0.43. For YSYTILHNFNKCSVKTLIFF, the amyloid nucleation score was 2.38 ± 0.058. In the case of FNSKTLKLTFFMVVPEYCWW, the amyloid nucleation score is reported as “inactive”. For PYARRMWHGVLVRDIGLYTR, the amyloid nucleation score was “inactive”. With RASLEYVGKCWWDGPYIEGV the amyloid nucleation score was “inactive”. For SSNTTMRINSVRH, the amyloid nucleation score was “inactive”. VLIYDVCCALNLCCGFRTFG gave an amyloid nucleation score of 1.77 ± 0.081. In the case of PRDGVFLVKGDRPC, the amyloid nucleation score is reported as “inactive”. With CLVTLVLTKFWCMCASSAVD the amyloid nucleation score was “inactive”. For SAVYIDA, the amyloid nucleation score was “inactive”. In the case of QWWITTYFGLIFLYVFYSID, the amyloid nucleation score is reported as “inactive”. For PWDWWVDSACWRRRPVDDPR, the amyloid nucleation score was “inactive”. In the case of SAGWHTYRIKHPVSFVGKTI, the amyloid nucleation score is reported as “inactive”. With SLKGVITSFVRNVFFNRAMY the amyloid nucleation score was “inactive”. In the case of AASNTAFNYLSTRPIMRWLA, the amyloid nucleation score is reported as “inactive”. For IIGWASWCVGKGHLTFCQLV, the amyloid nucleation score was “inactive”. For TIFECRRASFNVSVEMGR, the amyloid nucleation score was “inactive”. For FLFIHKLTCLSLVKWTGFLV, the amyloid nucleation score was “inactive”. For GYRLRYNFVVFLM, the amyloid nucleation score was 1.02 ± 0.21. In the case of NKTDCETC, the amyloid nucleation score is reported as “inactive”. For GSKESPKRYSSSALASVGVI, the amyloid nucleation score was “inactive”. For VWQRAKSSTIGPLIW, the amyloid nucleation score was “inactive”.
